Two molecules from publication PMC3019082 can be followed below.

Positions count from the first letter of the chain named.

What all share (assay): filter binding
In one series the target is T1, I-SceI K86R/G100S (Saccharomyces cerevisiae, UniProt P03882 1-235, K86R;G100S).
T1 sequence: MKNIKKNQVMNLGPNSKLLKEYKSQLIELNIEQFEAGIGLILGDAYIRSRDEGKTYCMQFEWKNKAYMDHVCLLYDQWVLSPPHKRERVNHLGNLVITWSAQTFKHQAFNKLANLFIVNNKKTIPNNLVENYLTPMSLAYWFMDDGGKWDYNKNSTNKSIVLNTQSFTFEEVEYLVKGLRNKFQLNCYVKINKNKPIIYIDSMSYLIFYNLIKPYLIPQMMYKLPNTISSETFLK

The target in the next series is T2, I-SceI K86R/G100T (Saccharomyces cerevisiae, UniProt P03882 1-235, K86R;G100T).
T2 sequence: T1 sequence with S100T

The target in another series is T3, I-SceI K86R (Saccharomyces cerevisiae, UniProt P03882 1-235, K86R).
T3 sequence: T1 sequence with S100G

The target in another series is T4, I-SceI K86R/G100C (Saccharomyces cerevisiae, UniProt P03882 1-235, K86R;G100C).
T4 sequence: T1 sequence with S100C

The target in a further series is T5, I-SceI G100V (Saccharomyces cerevisiae, UniProt P03882 1-235, G100V).
T5 sequence: T1 sequence with R86K, S100V

For series [1], the target named is T6, I-SceI wild type (K86/G100) (Saccharomyces cerevisiae, UniProt P03882 1-235).
T6 sequence: T1 sequence with R86K, S100G

Another series deals with T7, I-SceI G100S (Saccharomyces cerevisiae, UniProt P03882 1-235, G100S).
T7 sequence: T1 sequence with R86K

For another series, the target named is T8, I-SceI G100C (Saccharomyces cerevisiae, UniProt P03882 1-235, G100C).
T8 sequence: T1 sequence with R86K, S100C

For another series, the target named is T9, I-SceI G100T (Saccharomyces cerevisiae, UniProt P03882 1-235, G100T).
T9 sequence: T1 sequence with R86K, S100T

B1: A/T+4 (WT) I-SceI target, filter binding duplex (dsDNA)
DNA 1: AACGAATAAAAGTTACGCTAGGGATAACAGGGTAATATAGCGAAAGAGTAGATATT
DNA 2: CAATATCTACTCTTTCGCTATATTACCCTGTTATCCCTAGCGTAACTTT
As a reminder, the Kd is the free concentration of one partner at which half of the binding sites on the other are occupied at equilibrium, for simple one-to-one binding. Low readings indicate tighter binding, high ones weaker binding. As to B1, the Kd turned out to be 83 ± 27 nM in the series with I-SceI K86R/G100S; 96 ± 16 nM with I-SceI K86R/G100T; 35 ± 5 nM with I-SceI K86R; 74 ± 12 nM in the series with I-SceI K86R/G100C; 240 ± 51 nM with I-SceI G100V; 9 ± 3 nM in series [1]. The equilibrium dissociation constant (Kd) in the series with I-SceI G100S is 150 ± 26 nM; with I-SceI G100C, 110 ± 30 nM; with I-SceI G100T it was 39 ± 13 nM.

B2: C/G+4 I-SceI target, filter binding duplex (dsDNA)
DNA 1: B1 DNA 1 with A29C
DNA 2: B1 DNA 2 with T29G
Turning to B2, the Kd amounted to 23 ± 4.3 nM in the series with I-SceI K86R/G100S; 8.2 ± 0.86 nM in the series with I-SceI K86R/G100T; 39 ± 10 nM in the series with I-SceI K86R; 7.5 ± 2.3 nM with I-SceI K86R/G100C; 230 ± 27 nM in the series with I-SceI G100V; 20 ± 4.6 nM in [1]. Moreover, the Kd turned out to be 32 ± 10 nM with I-SceI G100S, 34 ± 8.8 nM with I-SceI G100C and 10 ± 1.5 nM in the series with I-SceI G100T.
